A short description of this data set: label from the status in PepcDB records.

Experimental findings from a protein production outcome set (Wang et al. 2014) are described below.

Regarding “MGVDMELKVEASLREARTLLAAKQYSQAANVAHSLFCTCHKFNLQIEKASVLLLLAEIHKKSGNAVLGLPYALASISFCQSFNLDLLKASATLTLAELWLGLGSNHTKRALDLLHGAFPMILGHGGLELRARAYIFEANCYLSDPSSSVSTDSDTVLDSLRQASDELQALEYHELAAEASYLMAMVYDKLGRLDEREEAASLFKKHIIALENPQDVEQNMA”, the protein production entry was “failed”.

Take “MGVDNFSTTKKMFTWEVPGERVITLMTAGNLATTQALISLLEERSKTPSERSPSILERPTMFEVARLVGATLKEVIADTAGTGQVASSQFKASVIVGGQVKGGLPTLFLIYPEGNFIEVTEDSPFFQIGEAKYGKPILVRAYDPDLSFEDTIRLLMVSFDSTIKANLSVGLPLDLQVYANDSFAIKEQSRVEADDAYFQSISERWGDALRKALSDLPPYKSLLEHHHHHH”: the protein production result is given as “failed”.

With “MGVIVPGNSSPVPALSAGRSTVEGYDPKLHDPFFDGVSQQLADKGFITAAADDLITWARTGSLMWMTFGLACCAVEMMQASMPRYDLERYGFAPRASPRQSDVMIVAGTLTNKMAPALRKVYDQMPEPRYVISMGSCANGGGYYYYSYSVVRGCDRVVPVDIYVPGCPPTAEALVYGVLQLQKKIRRTGTIER”, the protein production entry is on record as “failed”.

As to “MGVLHALREEEGAARARFEEALTHDAGHYRARMNIGNLDLEAGRLPEAEAAYREVLKLAPEYDGAHHNLGVALRRQGKLYESVGSIRKAQRLGVSGARAAAKEDMQEQLRLNPHLRWIRAAIFIGVLLLLGVLLWLNRGRA”, the protein production entry is reported as “failed”.

Take “MGVLRPAAPITGTPNTRLTPVRRRLPTAEAKPTPRFNTPTNKLPEQMSSESPRNPLLDTWTETSSHMFNSVVAANRAAFAAFGVQQEEENGVTPAERIEPDEDLPEWHVSISEEHPGRLGVGDHVDFTKTISEHDVQQFAAASGDTNPLHLDDEFAEQTRFRGRIAHGTLVGSLISAALARLPGLTIYLSQDLEFHNPVRIGDRLTAECEIVEDLGDEQYRLTTRVLADDEVVIDGEAVVLIDDLPE”: the protein production entry is on record as “failed”.

As for “MGVNMRAETESRIFSVDEYVRPSNGEPIRSVVLETNDSVVVVWHAHPGQEIASHVHPHGQDTWTVISGEAEYHQGNGIVTHLKAGDIAIAKPGQVHGAMNSGPEPFIFVSVVAPGNAGFALAEK”, the protein production result was “not failed”.

“MGVPEPRPDWSRRLLGQGEAPDPRFTLANERTFLAWVRTALALLGGAIAIETFAGHVLETPLRLWLVAGLMLLSALLSAGACLRWLRVERALRRRRPLPLPALVPLLALGCLVAVLLAGLVLWPRWHG”: the protein production entry is given as “failed”.

For the sequence “MGVQSAVRVHRAISEIGQDAWDACAASTGDPFVSYDFLSILEESGCVAARTGWAPQHLTVLDEADQVAGVMPLYLKSHSQGEYVFDHSWADAYERAGGRYYPKLQCSSPFSPVTGSRLIVRPDIDAAEGRSALMGGALTLCERMGASSLHVTFPVEDQWRWMGERGMLLRQDQQYHWENRGYETFDDFLGALSANRRKTIRRERRDAQEGLEIVALTGADLTEDHWDAFFAFYMDTGGRKWGRPYLNRPFFSLLGQRMADKVLLILARRPGGPFIAGALNLLGRDCLYGRHWGCVEDAPFLHFELCYYQAIEHAIRLGLPRVEAGAQGQHKIARGYLPSAVYSAHWIADPMLREPVARYLERERAAVESDMEMLTEEYSPFREER”, the protein production entry is listed as “failed”.

Consider “MGWCVMAVLVDSETRVLVQGITGREGSFHAKAMLEYGTKVVAGVTPGKGGSEVHGVPVYDSVKEALAEHPEINTSIVFVPAPFAPDAVYEAVDAGIRLVVVITEGIPVHDTMRFVNYARQKGATIIGPNCPGAITPGQAKVGIMPGHIFKEGGVAVVSRSGTLTYEISYMLTRQGIGQSTVIGIGGDPIVGLSFTEALKLFQEDPQTEALVLIGEIGGDMEERAAEMIKKGEFTKPVIAYIAGRTAPPEKRMGHAGAIIMMGTGTYEGKVKALREAGVEVAETPFEVPELVRKALRR”, for which the protein production entry is recorded as “not failed”.

“MGWLFLLLAVASEAFSHVALKATDGLSHLIPNVIVITGHLGAFYFLSQAMKTLPVGIAHASWAGLAIIAVTLISSAFYHQHLDNKIWLGIGFISIGIAIINLSSTPHVH”: the protein production entry is recorded as “failed”.

For “MGYCQDDQLVNKICDLYEKISKLETLKPCEDVDTLFKQLVSTCIPPNPNIDVTKMSENIQEMRSNLIKICGEAEGYLEHHFSSILTSFEDNPLHHLNLFPYYNNYLKLSKLEFDLLEQNLNGFVPRTVAFIGSGPLPLTSVVLASSHLKDSIFHNFDIDPSANMVAARLVSSDPDLSQRMFFHTVDIMDVTESLKGFDVVFLAALVGMDKKEKVKVVEHLEKHMSPGALLMLRSAHGPRAFLYPIVEPCDLEGFEVLSVYHPTDEVINSIVISRKLGEDANGVVHDHIDQASDLACNCSKIHVIMNKKKSIIEEFAGANEEQLT”, the protein production entry was “failed”.

Regarding “MGYGKILVALDRSELAKEVLQQAIALGQKESSQLMVFYCIPVDSQDLSIYPSFYGEAAIGFSQIIKEHLEEQQTEAREWLQSIVQQVQEDGVACEWDVKVGEPGRWIRDMAKNWDADLVVLGRRGLKGLAEVFLGSVSSYVIHHVQCSVLIVQH”, the protein production result was “failed”.

As for “MGYKDEIGVIGIDDAPFNKFDKEALIVGTYMRGNKLVDEISFKKIEKDGFDSTEKILKIVKDKHFTKINAIFLDGVTFGGFNIADIVKIYNETKIPVIAVMEKEPDLLKMKSALKKYFFDFPEKIEMLESFPKPEPFENIFIQCIGISFEDACKLIKKTRLRSKIPECLRISHLVGRGFLNME”, the protein production entry is given as “failed”.

Consider “MGYSGKPHHQLDGEIRESTDGKKWVIAGIPSRSPLKQINLSPGVTVTETEEQDQCPTTPTAVSVRIPRVPPCPAAPKKRKPSLKCSYVTVTRDYFSPPDLETVFIQRASY”, for which the protein production entry is reported as “failed”.

On to “MGYTLAEFLAHAIALETEAAERYVELADMMEAHNNLDTATVFRDMARFSTLHGDEIKQRSRALELPKLMSWQYRWKTPPEVGDENDIHYLMTPYHALRYARDNEIRGMEYYKEAAANSADPEVKRLGADFAAEEAEHVVALDKWIEKTPRPSITWSEDADPAQCVD”, for which the protein production entry is given as “not failed”.

On to “MHAELYRTRKRWYESAWPGAGFWRGANDTLPVTNYITYPANFDQPDGQSLTPLTMAAMMGNVKFVKTLLSHYDVDLDRECNVIYDGMVVYGATALWVAAGMGHLQIVKMLVQAGAAINHNTKAQSSPLRAACYEGRLDIVEFLIDNGADVNATNLFNNNTLMIAAYKGHHLVVKTLLQNGSRANDQALCGATALHYAAESGHLDVVVALLDHGATLKKNELGITPALQAAERLHEDVLEAFIERPELMSLEEQITALELLGATYANDKIKYDVNKAYGYLLRAMQLRYSNPRGVIRKRVQPTVPAYDNWLETENLPELYAIKLNHHSIHMESLAIRERILGRNNPELPQAIIYRGAVMADQGRFYQCQVLWNYAIDLRMRNNVSVDRDLLRFAQLFAQILRVENHNLTLDHVLPVLAKCQQEIENNKFKIKEAKPNACPSLWQDQNNQNCITALYLIKIVTHLARRKKDQNIDEEHIQQLFLVVRKFIQNDTRLQDGQTLLHIAVNGVMPVDEFYTNEMCRFPCYATALVLVHCGASVVAVDSDRNTPLHILVTKVNTTQDRQAEMARILELFVEAGAHLDAVNAAGQTAATACKLPILANRLHAHQNAHTSLKCLAARSIATNRLNFKGLIPTQLEAFIQMHSVRKVLP”, for which the protein production result is “failed”.

As to “MHAFPLTLDNRLAEALPLWRNLARTDRAPRRNIDLADWKADWRELIAALDRFSRSHGYRQPFAAQGHAALENAWAWGQAAENASTLLLKAIDRGLAGAELRSIYLETAALWLDYSRLLGAARDSLREQGEVDFETAPALAPRTGQYPFALQLLAMGVLLDAQELIPALVEEVLQFDTDRLLDYLGAAALGLTSASEETFHPRPFGQLRAFFEEADGSDAQALAPYLQSQYREFFQLSPKAQKKTRRLTGPYAWGWWAMEVSALGVLYGWDDGVLRASPHYLGDLVDYARARGDA”, the protein production entry is listed as “not failed”.

In the case of “MHCDDVMLPAALHRESCPAPEGVVTVADTTRNASGHARPRISIIIPAWNIAPWIGQTLRSILSQTVDDFECIVIDDGSTDGTAQVVASVADPRIRCIRQPNAGVSAARNRGIAEAQGAFITFLDGDDYWLPCFLETLLPPLLTRPEVDLVYCGMTMFMDDDGTVKPQPWGNVHATGNVWWDMLSDSVMLMGAWLARAEVVKGCRPFDPTLRVGEDRDFLLSMLEDIYHQRHHEAVGIDARLLRYRQRRGSGVRQVADALQCEWHMMDRHLRHEGIPPAVRRRAYSDLAFKMGVIAAFGARDIALALRWYGKAFALCPMNGNLYWLPLRKMFLSLRPRRRLHMKVLFLSARADFGGGPEHVLQLLRRLPPDVEAAVACPEDVPYWERFRNIVGDDNMFSMPHRAFTLEAVARLRRFCRKRGFDVLHAHGKGAGLYARVLSLLCGIPSVYTFHGVHLGGYGPLKRWLYGAYERAASWCTRRGIAVSRGERDAIEAHGLMPASKVSVIMNGVEMPEGTAPRPAGPPWLVVSFSRFDMQKNSLFLLDVARALQEQGRLDGFRFLLVGDGPDRARLLEQAAAQGLGDRVSCPGATPTPHEAYAGALCYFSSSRWEGMPLAVLEAMAHGLPVVATDVVGNRDAVADGVTGLLYPEGDAGAAARGLVRLADEAALWAAMAHEARAWVATRHDVQRMADRTFHELRKACGRA”, the protein production entry is listed as “failed”.

Consider “MHCNDGGPATLGLFSDSDLQQPARVEVLGPQSRVLRGFALPWVEALLPQLDAVLAAAPFRQMQTPGGFTMSVGLSSCGQLGWTTDRSGYRYSPIDPQSQRPWPALPKVFQELAEAAAEAAGFPGFAPDSCLINCYRPGAKMSLHQDKNERDYSAPIVSLSLGLPAIFLFGGRQRSDKSQRVALLHGDVVVWGGVDRLRYHGVLALKDGHHPLLGQQRINLTLRRAGLEHHHHHH”, for which the protein production entry is “failed”.

“MHCRIRNTISCSNYIFSAVWNFLISVFINKTNFNNSVYCRIFKVSIGLRKSISSTTRTRWVPVVFICSRSTNRWTGARSVNPIRNLEHHHHHH”: the protein production result is on record as “failed”.

For the sequence “MHEIFTMMLAVYDRAALMLICLFFLIRLRLFRELLHKSAHTPKELLAVTAIFSLFALFSTWSGVPVEGSLVNVRIIAVMSGGILFGPWVGAIVGAIAGVHRYLIDIDGVTAVPCFITSIVAGLLSGLINRKVAREQRWKIGILAGMMCETLTMILVVVWAPSLSLGVDIVSKIGIPMILGSVCIGFIVLLVQSVEGEKEASAARQAKLALDIANKTLPLFRHVNSDSLRQVCEIIRRDITADAVAITNTEHVLAYVGVGEANYQRHDDMISPTTRQAIRYGKIIIKNNDEAHRTPEIHSLMVIPLWEKGVVTGTLKIYYCHAHRITSTLQEMAIGLSQIISTQLEVSRAEQLREMANKAELRALQSKINPHFLFNALNAISSSIRLNPDTARQLIFNLSRYLRYNIELKDDEQIDIKRELYQIKDYIAIEQARFGDKLTVIYDIDDDVSCVIPSLLIQPLVENAIVHGIQPCKGKGVVTIGINECGNRVRISVRDTGNGIDPAVVARVEADEMPGNKIGLLNVHHRVKLLYGEGLHIRNLTPGTEIAFYVPNNSTPQALTESLLS”, the protein production entry is “failed”.

For “MHESMREIAERATFQSFANCYRREIDPGMPSQHRPECGDRRTYVEWSCPMAAATLRAEVERESLCGPFRFGRVFICRAPDNAWHEIAPLRALYLMVQECYSGIGAARAEALRNEEAELLGRVLASYQCIADSLQRSSGEAGRTFLDGEQSLMFGHWLHPTPKSRQGMADWQQPTYAPEHRGQFQLTYFAVDAALLRYGSAGDVSVSGILETLLPEADRPTLRPGEALIPLHPMQAEAVMLSPDIAELAREGRLRRLGPFGAEFSPTSSVRTVYSPAIPWMLKFSLPVRITNSLRINRMPELKAGVAMSRLFARTDFLARHPCFRLIRDPAYLTLGLPGRTESGFEIIFRENPFTTGNETKGITIAALTADPPPHARSRLDVLVREYAAQQGLPVASACRHWFSAYLDCALDPLVRLYNELGVALEAHQQNVLLDVSSGLPTASYYRDNQGFYLSNAHRDRLVSLVPETAEIGGLYFDDHVIQERFAYYLIVNQICSMIARMGQDRLIDEEALLIMLRERLNGLARELAGVGRDFASGIVDRPTVAAKANLLTRMLDIDELEAEDGRAIYVQLPNPLFGDRRSARRGEARAASR”, the protein production result is “failed”.
